In publication PMC6700428, “Purification and characterization of an isoflavones conjugate hydrolyzing β-glucosidase (ICHG) from Cyamopsis tetragonoloba (guar)” (Biochemistry and Biophysics Reports, 2019):

Experiments:
[1] = molecular target: Isoflavones conjugate hydrolyzing β-glucosidase (ICHG) from Cyamopsis tetragonoloba (guar) (Cyamopsis tetragonoloba (guar)); experiment: SEC; Sephadex G-75 column (1.8 x 50 cm), 0.02 M sodium phosphate buffer pH 6, standard proteins of 66 to 124 kDa; native mass (~150 kDa) compared with the subunit mass on SDS-PAGE (~50 kDa)
[2] = system: T1, Isoflavones conjugate hydrolyzing β-glucosidase (ICHG); experiment: 4-nitrophenol release at […] nm, Lineweaver-Burk plot; assay type: biochemical, Cyamopsis tetragonoloba; conditions: optimum pH 4.5 and 37 °C; citrate phosphate buffer 0.1 M; PNPG 0.1-5 mM
T1 construct: native, purified from dried seeds (ammonium sulphate, Sephadex G-75, DEAE-Sepharose); ~50 kDa subunit, ~150 kDa native, probable homotrimer; five internal peptides closest to Cicer arietinum beta-glucosidase

Molecule | stoichiometry N [1] | Km [2]
Isoflavones conjugate hydrolyzing β-glucosidase (ICHG) from Cyamopsis tetragonoloba (guar) (enzyme) | 3 | –
O=[N+]([O-])c1ccc(O[C@@H]2O[C@H](CO)[C@@H](O)[C@H](O)[C@H]2O)cc1 [para nitrophenyl -β-D- glucopyranoside] | – | 860 µM
